Legend:
[1] = target: T1, human chemokine receptor CXCR4 fused to the N-terminus of GFP or TagRFP (human), P61073; experiment: FRET or BRET; conditions: remark: other sources report otherwise
T1 chain: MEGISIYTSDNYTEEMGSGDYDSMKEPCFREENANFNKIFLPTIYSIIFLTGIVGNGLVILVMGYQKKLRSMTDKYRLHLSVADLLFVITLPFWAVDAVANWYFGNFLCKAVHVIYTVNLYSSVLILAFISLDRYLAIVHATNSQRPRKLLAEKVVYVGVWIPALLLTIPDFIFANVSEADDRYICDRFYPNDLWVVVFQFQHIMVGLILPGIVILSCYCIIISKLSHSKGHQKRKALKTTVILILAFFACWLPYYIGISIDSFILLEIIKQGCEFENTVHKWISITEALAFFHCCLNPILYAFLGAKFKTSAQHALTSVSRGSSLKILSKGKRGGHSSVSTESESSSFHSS

[2] = target: T1, human chemokine receptor CXCR4 fused to …; experiment: FRET or BRET; conditions: remark: other sources report otherwise

B1: human chemokine receptor CXCR4 fused to the N-terminus of GFP or TagRFP, P61073 1-352 (receptor)
chain: T1 chain
B1 was tested. Which FRET efficiency [1] did it give?
Its FRET efficiency is 10.9%.

What about the FRET efficiency [2] of the same binder?
Its FRET efficiency is 10.4%.

From article PMC3408954
